Source: article PMC5538822, “RNA-dependent stabilization of SUV39H1 at constitutive heterochromatin”
Changes are numbered by the printed parent chain.

Columns and labels:
Conditions in all cases: protein: recombinant; tags: MBP; label: 32P
MBP-SUV39H1 42-106 R55A [1] = target: T1, MBP-SUV39H1 42-106 R55A (Homo sapiens, UniProt O43463 42-106, R55A); assay: EMSA; 20 mM Tris-HCl pH 7.4, 50 mM NaCl, 10% glycerol, ~4 U RNase inhibitor, room temperature 10 min; native gel 0.5X TBE at 25 C; filter binding on nitrocellulose in the same buffer
T1 sequence: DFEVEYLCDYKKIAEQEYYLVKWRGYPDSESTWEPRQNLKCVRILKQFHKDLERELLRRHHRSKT

MBP-SUV39H1 42-106 R84A [2] = target: T2, MBP-SUV39H1 42-106 R84A (Homo sapiens, UniProt O43463 42-106, R84A); assay: as above
T2 sequence: T1 sequence with A14R, R43A

MBP-SUV39H1 42-106 R55A [3] = target: T1, MBP-SUV39H1 42-106 R55A; assay: filter binding; 20 mM Tris-HCl pH 7.4, 50 mM NaCl, 10% glycerol, ~4 U RNase inhibitor, room temperature 10 min; native gel 0.5X TBE at 25 C; filter binding on nitrocellulose in the same buffer
MBP-SUV39H1 42-106 R84A [4] = target: T2, MBP-SUV39H1 42-106 R84A; assay: as above

Measured: binding signal

B1: sense 19mer ssRNA (ssRNA)
RNA: AUAUGGGAACCACUGAUCC
> 40 fold lower affinity than WT: MBP-SUV39H1 42-106 R55A [1] | MBP-SUV39H1 42-106 R84A [2] | MBP-SUV39H1 42-106 R55A [3] | MBP-SUV39H1 42-106 R84A [4]
